Laboratory results reported in PMC10069166 (Heliyon, 2023).

Molecular target: SARS-CoV-2 Spike protein (RBD, His & Avi tag) (SARS-CoV-2, wild type, UniProt P0DTC2)
Assay: BLI

B1: 80R antibody (antibody, V domains shown)
VH: EVQLVQSGGGVVQPGKSLRLSCAASGFAFSSYAMHWVRQAPGKGLEWVAVISYDGSNKYYADSVKGRFTISRDNSKNTLYLQMNSLRAEDTAVYYCARDRSYYLDYWGQGTLVTVSS
VL: TTLTQSPATLSLSPGERATLSCRASQSVRSNLAWYQQKPGQAPRPLIYDASTRATGIPDRFSGSGSGTDFTLTISRLEPEDFAVYYCQQRSNWPPTFGQGTKVEVK
  binding result: no binding (tested: 20 nM and 10 nM)
